# Changes are numbered by the printed parent chain.
# B1: P282DR9P1359_E11 (designed binder)
# chain: LPAPKNLVVSRVTEDSARLSWTAPDAAFDSFYISYPEWPPVGEAIVLTVPGSERSYDLTGLKPGTEYWVIIYGVKGGAISTPLSAIFTT
# notes: FN3 domain
# B2: P282DR9P1359_F3 (designed binder)
# chain: B1 chain with S34T, P40V, V41Q, A78T, I79E, T81E
# notes: FN3 domain
# B3: P282DR9P1359_F7 (designed binder)
# chain: B1 chain with Y32A, S34A, V41Q, W68F, I70V, A78S, I79Y, T81A
# notes: FN3 domain
# B4: P282DR9P1359_F6 (designed binder)
# chain: B1 chain with Y32D, S34A, P40T, V41T, W68F, I70V, Y72W, A78D, I79H, T81A
# notes: FN3 domain
# B5: P282DR9P1359_E2 (designed binder)
# chain: LPAPKNLVVSRVTEDSARLSWTAPDAAFDSFNIFYPEIVTWGEAIVLTVPGSERSYDLTGLKPGTEYWVNIVGVKGGDNSWPLSAIFTT
# notes: FN3 domain
# B6: P282DR9P1359_F11 (designed binder)
# chain: B5 chain with N32D, I38L, V39P, T40I, W41H, V72T, N79F
# notes: FN3 domain
# B7: P282DR9P1359_H5 (designed binder)
# chain: LPAPKNLVVSRVTEDSARLSWTAPDAAFDSFNIAYPEALHPGYGEAIVLTVPGSERSYDLTGLKPGTEYFVVIYGVKGGTNSEPLSAIFTT
# notes: FN3 domain
# B8: P282CR9P1358_F11 (designed binder)
# chain: LPAPKNLVVSRVTEDSARLSWTAPDAAFDSFLIAYPEWPIFEGEAIVLTVPGSERSYDLTGLKPGTEYFVVIYGVKGGEQSSPLSAIFTT
# notes: FN3 domain
# B9: P282DR9P1359_C5 (designed binder)
# chain: B8 chain with L32W, A34T, I40D, F41P, E42G, Q80I, S81Y
# notes: FN3 domain
# B10: P282FR9P1361_A5 (designed binder)
# chain: LPAPKNLVVSRVTEDSARLSWTAPDAAFDSFGILYYEPVDSGEAITLPVPGSERSYDLTGLKPGTEYWVVITGVKGGAPSTPLGAIFTT
# notes: FN3 domain
# B11: P282ER9P1360_C1 (designed binder)
# chain: B10 chain with A23T
# notes: FN3 domain
# B12: P282ER9P1360_E4 (designed binder)
# chain: B10 chain with P50L
# notes: FN3 domain
# B13: P282ER9P1360_G7 (designed binder)
# chain: B10 chain with F87L
# notes: FN3 domain
# B14: P282ER9P1360_C6 (designed binder)
# chain: B10 chain with P2S, V49I
# notes: FN3 domain
# B15: P282ER9P1360_A9 (designed binder)
# chain: B10 chain with V49I
# notes: FN3 domain
# B16: P282ER9P1360_C4 (designed binder)
# chain: B10 chain with L34T, V39N, D40H, S41G, T46S, P48S, L58P
# notes: FN3 domain
# B17: P282ER9P1360_D11 (designed binder)
# chain: B10 chain with W68F, V70I, T72V, A78Y, T81I, I86A
# notes: FN3 domain
# B18: P282ER9P1360_C8 (designed binder)
# chain: B10 chain with A85T
# notes: FN3 domain
# B19: P282DR9P1359_A7 (designed binder)
# chain: LPAPKNLVVSRVTEDSARLSWTAPDAAFDSFRIGYPELEKLGYGEAIVLTVPGSERSYDLTGLKPGTEYWVIIWGVKGGENSWPLSAIFTT
# notes: FN3 domain
# B20: P282DR9P1359_G7 (designed binder)
# chain: B19 chain with R32A, G34T, P36I, L38K, K40H, L41I, G42E, Y43D, I72P, E80A
# notes: FN3 domain
# B21: P282DR9P1359_G4 (designed binder)
# chain: LPAPKNLVVSRVTEDSARLSWTAPDAAFDSFEIAYPEWPPPGEAIVLTVPGSERSYDLTGLKPGPEYFVVIQGVKGGDPSFPLSAIFTTGGNHHHHH
# notes: FN3 domain
# B22: P282DR9P1359_B2 (designed binder)
# chain: LPAPKNLVVSRVTEDSARLSWTAPDAAFDSFWIAYTEWPIPYEEAGQEGEAIVLTVPGSERSYDLTGLKPGTEYWVSIYGVKGGPNSQPLSAIFTT
# notes: FN3 domain
# B23: P282DR9P1359_F2 (designed binder)
# chain: LPAPKNLVVSRVTEDSARLSWTAPDAAFDSFNIAYPEALHPGYGEAIVLTVPGSERSYDLTGLKPGTEYWVIIGGVKGGQKSWPLSAIFTTGGHHHDHH
# notes: FN3 domain
# Target: T1, cynomolgus monkey CD8A on primary cynomolgus monkey CD8+ T cells (cynomolgus monkey, UniProt P01732 23-235 (human entry))
# T1 construct: also called Cyno CD8alpha
# T1 sequence (P01732 other isoform, or with tags, fused parts or gaps limits assumed): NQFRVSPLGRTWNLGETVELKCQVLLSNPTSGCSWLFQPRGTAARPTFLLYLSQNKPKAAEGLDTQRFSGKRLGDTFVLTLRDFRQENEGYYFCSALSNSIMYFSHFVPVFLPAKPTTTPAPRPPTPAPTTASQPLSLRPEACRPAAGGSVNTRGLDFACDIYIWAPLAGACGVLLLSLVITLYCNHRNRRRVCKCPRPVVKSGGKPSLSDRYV
# Assay: flow cytometry, cyno CD8+ T cells, 0.2 uM FN3
row,Binder,Cyno T-cell Binding 0.2 uM (MFI)
1,B1,33100 MFI
2,B2,3080 MFI
3,B3,26300 MFI
4,B4,10700 MFI
5,B5,10900 MFI
6,B6,16100 MFI
7,B7,500 MFI
8,B8,6580 MFI
9,B9,14200 MFI
10,B10,8110 MFI
11,B11,9680 MFI
12,B12,6870 MFI
13,B13,9920 MFI
14,B14,7580 MFI
15,B15,8730 MFI
16,B16,3900 MFI
17,B17,1940 MFI
18,B18,10200 MFI
19,B19,22800 MFI
20,B20,8770 MFI
21,B21,6010 MFI
22,B22,4470 MFI
23,B23,4030 MFI

# Target: T2, human CD8 alpha (CD8A) on primary human CD8+ T cells (human, UniProt P01732 22-235)
# T2 construct: whole, on cells; also called hCD8A
# T2 sequence (P01732 22-235): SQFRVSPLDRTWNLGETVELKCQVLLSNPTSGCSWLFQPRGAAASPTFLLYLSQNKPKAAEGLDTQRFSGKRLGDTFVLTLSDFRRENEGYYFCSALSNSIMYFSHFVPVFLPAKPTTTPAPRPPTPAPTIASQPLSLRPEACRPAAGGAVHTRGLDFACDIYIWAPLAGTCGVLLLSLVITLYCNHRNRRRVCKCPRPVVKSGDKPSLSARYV
# Assay: flow cytometry, human CD8+ T cells, 0.2 uM FN3
row,Binder,Human T-cell Binding 0.2 uM (MFI)
1,B1,7580 MFI
2,B2,646 MFI
3,B3,6930 MFI
4,B4,3780 MFI
5,B5,4820 MFI
6,B6,6590 MFI
7,B7,278 MFI
8,B8,749 MFI
9,B9,5550 MFI
10,B10,5210 MFI
11,B11,6290 MFI
12,B12,5030 MFI
13,B13,5870 MFI
14,B14,5080 MFI
15,B15,5340 MFI
16,B16,3460 MFI
17,B17,3210 MFI
18,B18,6010 MFI
19,B19,8760 MFI
20,B20,6130 MFI
21,B21,2670 MFI
22,B22,2730 MFI
23,B23,3050 MFI

# Target: T2, human CD8 alpha (CD8A) on primary human …
# Assay: flow cytometry, human CD8+ T cells, 2 uM FN3
row,Binder,Human T-cell Binding 2 uM (MFI)
1,B1,40600 MFI
2,B2,6340 MFI
3,B3,38300 MFI
4,B4,19900 MFI
5,B5,28500 MFI
6,B6,35600 MFI
7,B7,919 MFI
8,B8,6420 MFI
9,B9,31000 MFI
10,B10,32800 MFI
11,B11,25900 MFI
12,B12,26900 MFI
13,B13,25400 MFI
14,B14,25900 MFI
15,B15,23400 MFI
16,B16,19200 MFI
17,B17,36800 MFI
18,B18,30600 MFI
19,B19,38400 MFI
20,B20,37600 MFI
21,B21,26600 MFI
22,B22,22200 MFI
23,B23,18400 MFI

# Target: T1, cynomolgus monkey CD8A on primary …
# Assay: flow cytometry, cyno CD8+ T cells, 2 uM FN3
row,Binder,Cyno T-cell Binding 2 uM (MFI)
1,B1,104000 MFI
2,B2,48900 MFI
3,B3,96500 MFI
4,B4,73200 MFI
5,B5,77700 MFI
6,B6,86700 MFI
7,B7,2250 MFI
8,B8,62400 MFI
9,B9,95700 MFI
10,B10,63500 MFI
11,B11,64800 MFI
12,B12,60800 MFI
13,B13,69700 MFI
14,B14,52800 MFI
15,B15,64700 MFI
16,B16,33400 MFI
17,B17,76600 MFI
18,B18,66800 MFI
19,B19,83900 MFI
20,B20,69100 MFI
21,B21,78600 MFI
22,B22,60900 MFI
23,B23,38200 MFI

# Target: T3, In house human CD8A-Fc (human, UniProt P01732 22-182, limits assumed)
# T3 construct: Captured on goat anti-human Fc on a ProteOn GLC chip; also called hCD8A-Fc; recombinant human CD8 alpha; not shown: linker with flag (and polyhistidine) tag and Fc of human IgG1
# T3 sequence (P01732 22-182 limits assumed): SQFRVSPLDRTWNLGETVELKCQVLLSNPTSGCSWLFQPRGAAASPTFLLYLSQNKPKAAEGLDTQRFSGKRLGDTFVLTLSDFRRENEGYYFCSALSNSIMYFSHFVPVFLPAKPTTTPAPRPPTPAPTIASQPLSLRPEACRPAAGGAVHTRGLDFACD
# Assay: SPR (ProteOn), captured hCD8A-Fc
row,Binder,koff
1,B1,0.000265 s⁻¹
2,B2,0.00106 s⁻¹
3,B3,0.000365 s⁻¹
4,B4,0.000389 s⁻¹
5,B5,0.00206 s⁻¹
6,B6,0.000554 s⁻¹
7,B7,0.00449 s⁻¹
8,B8,0.00135 s⁻¹
9,B9,0.000174 s⁻¹
10,B10,0.000192 s⁻¹
11,B11,0.000181 s⁻¹
12,B12,0.000191 s⁻¹
13,B13,0.000221 s⁻¹
14,B14,0.000175 s⁻¹
15,B15,0.000133 s⁻¹
16,B16,0.00107 s⁻¹
17,B17,0.000142 s⁻¹
18,B18,0.000156 s⁻¹
19,B19,0.000754 s⁻¹
20,B20,0.000114 s⁻¹
21,B21,0.000517 s⁻¹
22,B22,0.000638 s⁻¹
23,B23,0.000722 s⁻¹
